Test results published in the nanobody polyreactivity screen of Harvey et al. (2022).

Experiment: yeast display, Sf9 membrane polyspecificity reagent, FACS + sequencing; frameworks hold sequencing errors
Summary of the method: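 A nanobody's polyreactivity label depends on the gate it was sorted from. Yeast display cells were stained with 10% biotinylated, detergent-solubilized Sf9 membrane reagent for 1 hour at 4 °C, enriched on streptavidin microbeads and sorted by FACS. The low and high (top ~1%) gates were set on anti-HA fluorescence for expression and streptavidin fluorescence for reagent binding.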

QVQLVESGGGLVQAGGSLRLSCAAAGIIFISYDMGWYRPAPGKDRELVARINWDGGSTYYADSVKGRFTISRDKAKHTFYLQTNTLKPEDTAVSYCAAGFVGTNYPLQGFSYEYWGPGTQVTVSS
polyreactivity (PSR sort gate): low polyreactivity

QVQLVESGGGLVQAGGSLRLSCAASGSIFGLNAMGWYRPEPGQESALVAAISYSGGTTYYADSVKGRFTISRDNAKNSVYLQMNSLKPEDTAVYYCATRARYVGGYKYNYWGQGTQVTVSS
polyreactivity (PSR sort gate): high polyreactivity

QVQLVESGGGLVQAGGSLRLSCAASGRTFQWYAMGWYRQAPGKERELVAAISYNGDSTYYADSVKGRFTISRDNAKNTVYLQMNSLKPEDTAVYYCAATPYPYYGYDYWGQGTQVTVSS
polyreactivity (PSR sort gate): high polyreactivity

QVQLEESGGGLVQAGGSLRLSCAASGSTFGFYAMRWYRQAPGKERDLVAAISSAARTYYADSVKGRFTISRDNAKNTVYLQMNSLKPADTAVYYCSAEAYHWTSYIGYGGVYYWGQGTQVTGSS
polyreactivity (PSR sort gate): low polyreactivity

QVHLQESGGGLVQAGGSLRLSCAASGTIFRFRYMGWHRQAPGKERELVAGINGGTTTYYADSVIGRFTISRDNAKNTVYLQMNSLKPDDTAVYNCAAGASRLTYYDFWGQGTQVTVSS
polyreactivity (PSR sort gate): low polyreactivity

QVQLVESGGGLVQAGGSLRLSFAASGITFDSYAKGWYRQAPGKERELVATISRSGTTTYYADSVKGRFTISRDNAKNTVYLQMNSLKPEDTAVYYCNTLRAYWTYHFYGAVRDGYDYWGQGTQVTVSS
polyreactivity (PSR sort gate): low polyreactivity

QVQLVESGGGLVQAGGSLRLSCAASGRIFRRYAMGWYRQAPGKERELVAAISWSGGATYYADSVKGRFTISRDNAKNTVYLQMNSLKPEDTAVYYCAALRYQQCRAYDYWGQGTLVTVSS
polyreactivity (PSR sort gate): high polyreactivity

QVQLVESGGGLVQAGGSLRLSCAASGSTFDDYALGWYRQAPGKERELVAAISFSSGSTYYADSVKGRFTISRDNAKNTVYLQMNSLKPEDTAVYYCAAEKYGWTYYFSWQEDYWGQGTQVTVSS
polyreactivity (PSR sort gate): high polyreactivity

QVQLVESGGGLVQAGGSLRLSCAASGIIIDRYAMGWYRQAPGKERELVAAISWSGGRTYYADSVKGRFTISRDNAKNTVYLQMNSLKPEDTAVYYCAAKPSVDLDYWGQGTQVTVSS
polyreactivity (PSR sort gate): high polyreactivity

QVHLVESGGGLVQAGGSLRLSCAASGSIFGPYAMGWYRQAPGKERELVAAITYRGDSTYYADSVKGRFTISRDYAKNTVYLQINSLKPEDTAVYYCAADYFYANYDYWGQGTQVTVSS
polyreactivity (PSR sort gate): high polyreactivity

QVQLVESGGGLVQAGGSLRLSCAASGRTLGTYAMGWYRQAPGKERELVAAISVSSGSTYYADSVKGRFTISRDTAKNTVYLQMNSLKPEDTAVYYCAALPVYHYDSWGQGTQVTVSS
polyreactivity (PSR sort gate): high polyreactivity

QVQLVESGGGLVQAGGSLRLSCAASGFIIYRNARGWYRQAPGKERELVAGISSGGSTNYADSVKGRFTISRDNAKNTVYLQMTSLKPEDTADYYCATRVYALWFGRYDYWGQGTQVTVSS
polyreactivity (PSR sort gate): high polyreactivity

QVQLVESGGGLVQAGGSLRLSCAASGFTFSTYAMGWYRQEPGKEREFVATISWRGTNTYYADSVKGRFTISRDNAKNTVYLQMNSLKPEDTAVYDCAARRRSGYGANDYWGQGTQVTVSS
polyreactivity (PSR sort gate): high polyreactivity

QVQLVESGGGLVQAGGSLRLSCAASGSIFDIYGMGWYRQAPGKERELVASISGGAGSTNYADSVKGRFTISRDHAKNTVYLQMNSLKPEDTAVYYCAAEVYVPDYFQHKFDVEYEYWGQGTQVTVSS
polyreactivity (PSR sort gate): low polyreactivity

QVQLVESGGGLVQAGGSLRLSCAASGSTIGSYAMRLSRQAPGTERELVAVITSDGRTNYADSVKGRFTISRDNAKNTVYLQMNSLKPEDTAVYYCAAGYGRWRYGTGVYDNYYYWGQGTQVTVSS
polyreactivity (PSR sort gate): low polyreactivity

QVQLVESGGGLVQAGGSLRLSCAASGYTFIRNGMGWYRQAPGKERDLVAAISRRGGSTYYADSVKGRFTISRDNAKNTVYLQMNRLKPEDTAVYYCAKASTERMGSWGQGTQVTVSS
polyreactivity (PSR sort gate): high polyreactivity

QVQLVESGGGLVQAGGSLRLSCAASGFTFGNSALGWYRLAAGKERELVAAISRSGGRTYYADSVKGSFTISRDNAKNTVYLQMNSLKPEVTAVYYCARLLLSPQYGYWGQGTQVTVSS
polyreactivity (PSR sort gate): high polyreactivity

QVQLVESGGGLVQAGGSLRLSCAASGSTFHRNAMGWYRQAPGKERELVAAITSGGSTNYADSVKGRFTISRDNAKNTVYLQMNSLKPEDTAVYYCAKDYRHYNRGWYDYWGQGTQVTVSS
polyreactivity (PSR sort gate): low polyreactivity

QVQLVESGGGLVQAGGSLRLSCAASGRILGWNAMGWYRQAPGKERELVAAISTSGTDTYYADSVKGRFTISSDNAKNTVYLQMNCLIPEDTAVYYCAADTVTIYWGLSVSYGCWGQGTQVTVSS
polyreactivity (PSR sort gate): low polyreactivity

QVQLVESGGGLVQAGGSLRLSCAASGRIFFVNAMGWYRQAPGKERELVAAISRGGTTYYADSVKGRFTISRDNAKNTVYLQMNSLKPEDTAVYYCNVAYTPSFYRYDYWGQGTQVTVSS
polyreactivity (PSR sort gate): low polyreactivity

QVQQQESGGGLVQAGGSLRLSCAASGSIFDGFNMGWYRQAPGKEREFVAAISYGASTYYADIVKGRFTDSRDNAKYSVYLQMIRLKPEDTAVYYCAVYDELYHVLVYWGRGTQVTVSS
polyreactivity (PSR sort gate): low polyreactivity

QVQRVESGGGIVQAGGSLRLSSAASGSIYLYHAMGWYRPERGKERQLVAAIRSGGITYYADSVKGRFTISRDNAKNTVYLQMYSLKPEDTADYYCAAKFYWKGTPKKYYYWGQGTQETVSS
polyreactivity (PSR sort gate): high polyreactivity

QVQLVESGGGLVQPGGSLRLSCAASGRTYYINAMGWYRQAPGKERELVATISKSGGSTNYADSEKGRFTISRDNAMNTFYLQMNSLKPEDTAVYYCAADTSGGSWGRGRWKFGYWGQGTQVTVSS
polyreactivity (PSR sort gate): high polyreactivity

QVQLVESGGGLVQAGGSLRLSCAASGSIFNAYAMGWYRQAPGKERELVAAISKRTSYADSVKGRFTISRDNAKNTVYLQMNSLKPEDTAVYYCANEVDEPDGYEYDYWGQGTQVTVSS
polyreactivity (PSR sort gate): low polyreactivity

KVQLVESGRALVQAGGSLRLSCAASGSTFGNNAMGWNRPAPGKERELVATIDDTTVSTNYADSVKGRFTISRDNAKNTVYLQMTCLKPEDTAVYYCSADDVDGSPYDYWGQGTQGTVSS
polyreactivity (PSR sort gate): low polyreactivity

QVQLVESGGGLVQAGGSLRLSCAASGSIFGLNAMGWYRQAPGKERELVAAISCGSTNYADSVKGRFTISRDNAKYTVYLQMNSLKPEDTAVYYCAARARRRYYYWGQGTQVTVSS
polyreactivity (PSR sort gate): high polyreactivity

QVQLVESGGGLVQAGGSLRLSCAASGRTFYDYAMGWYRQAPGKERELVADITSGGGNTYYADSVKGRFTISRDNAKNTVYLQMNSLKPEDTAVYYCNADYDLYFSGWYDYWGQGTQVTVSS
polyreactivity (PSR sort gate): low polyreactivity

QVQLVESGGGLVQAGGSLRLSCAASGSTFTRYAMGWYRQEPGKERELVAAITRRGVSTYYSDSVKGRFTISLDNAKNTVYLQMNSLKPEDTAVYYCNADVEHYSTLSEYWGQGTQVTVSS
polyreactivity (PSR sort gate): high polyreactivity

QVQLVESGGGLVQAGGSLRLSCSASGYTFAWYAMGWYRQAPGKERELVAAITVSGGSTYYADSVKGRFTISRDNAKNTVYLQMNSLKPEDTAVYYCAADYAPLDLYQVSTVYSSGDYWGQGTQVTVSS
polyreactivity (PSR sort gate): low polyreactivity

QVQLVESGGGLVQAGGSLRLSCAASGSIFANNGMGWYRQAPGKERELVARISKRGGSTYYADSVKGRFTFSRDNAKNTVYLQMNSLKPEDTAVYYCNVRSWWGYTGPYDYWGQGTQVTVSS
polyreactivity (PSR sort gate): high polyreactivity

QVQLVESGGGLVQAGGSLRLSCAASGSTFLYYAMGWYRPAPGKEREFVASISGSGGSTNYADSVKGRFTISRDNAKTTVYLQLNSLKPEDTAVYYCAAGYGGWAWNHVSYGGDYWGQGTQVTVSS
polyreactivity (PSR sort gate): low polyreactivity
